# In publication PMC539286:
# Biological target: HTLV receptor (Glut1, the ubiquitous vertebrate glucose transporter) on human cells (human (endogenous in 293T)) (UniProt P11166)
# Chain of UniProt P11166 (P11166 whole entry): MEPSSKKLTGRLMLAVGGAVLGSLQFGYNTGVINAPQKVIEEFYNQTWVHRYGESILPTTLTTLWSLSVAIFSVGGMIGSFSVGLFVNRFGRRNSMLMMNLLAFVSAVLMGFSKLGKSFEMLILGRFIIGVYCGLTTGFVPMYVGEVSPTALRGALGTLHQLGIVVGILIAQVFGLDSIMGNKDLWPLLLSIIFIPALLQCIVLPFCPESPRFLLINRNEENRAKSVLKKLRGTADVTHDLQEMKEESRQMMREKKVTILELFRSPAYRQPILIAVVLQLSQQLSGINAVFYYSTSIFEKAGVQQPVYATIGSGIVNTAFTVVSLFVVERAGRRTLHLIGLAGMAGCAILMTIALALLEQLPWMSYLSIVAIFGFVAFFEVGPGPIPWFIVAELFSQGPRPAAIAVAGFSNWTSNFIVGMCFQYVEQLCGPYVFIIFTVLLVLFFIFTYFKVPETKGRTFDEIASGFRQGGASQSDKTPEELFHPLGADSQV
substance,measurement,value
"H1(Y114A)SU, H1_(215)SU subdomain with Tyr114 mutated to Ala (from UniProt P23064 21-215) (Fc fusion)","HTLV Env-mediated cell fusion with target cells that express the mutant, percent of control fusion",56 % of control
same,"MLV(HTLV) pseudotype infection of target cells that express the mutant, percent of control infection",46 % of control
